Molecular target: the molecule itself
Experiment: DEER

B1: CueR_19F58_L60H_G64H mutant (natural protein, E. coli)
chain: MNISDVAKITGLTSKAIRFYEEKGLVTPPMRSENGYRTYTQQHLNELTLLRQARQVGFNHEESHELVNLFNDPQRHSADVKRRTLEKVAEIERHIEELQSMRDQLLALANACPGDDSADCPIIENLSGCCHHRAG
modifications: 19F-phenylalanine at F58; Cu(II)-NTA spin label bound at the dHis site (L60H, G64H)
Question: Does B1 bind?
Answer: binds

— publication doi:10.1101/2022.08.03.502720 (bioRxiv, 2022)
